The target of this assay is H234A mutant of SARS-CoV-2 nsp15 with an N-terminal Strep-Tag II (SARS-CoV-2). Put plainly: cryo-EM structure.

The stoichiometry N is the number of molecules, sites or subunits per partner or assembly. Substance “H234A mutant of SARS-CoV-2 nsp15 with an N-terminal Strep-Tag II (enzyme)” yielded a stoichiometry N of 6.
